± gives the standard error. Fewer inactive variants are shown than the library holds.
B1: glmS ribozyme (parent)
chain: AUAAAAGCGCCAGAACUACAGAAAUGUAGUUGACGAGGAGGAGGUUUAUCGAAUUUUCGGCGGAUGCCUCCAAA

Variants of: B1
Experiment: self-cleavage kobs at 10000 uM GlcN6P; higher = faster cleavage; RNA array
Details: with glucosamine-6-phosphate
In short: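 E. coli RNA polymerase transcribed barcoded ribozyme variants in situ on sequenced MiSeq chips, which were tracked via a hybridised Cy3 probe at 37 °C. Tiles were imaged over ~14 h after glucosamine-6-phosphate (40 μM to 10 mM) in HEPES/KCl/Mg(OAc)2 buffer was flowed in. Normalised per-tile medians were fit to one- or two-exponential decays for kobs, and kcat and KM came from weighted Michaelis–Menten fits.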

Variant | self-cleavage kobs at 10000 uM GlcN6P [s⁻¹]
AUAAAACCGCCAGAACUACAGAAAUGUAGUUGAAGAGGAGGAGGUUUGUCGAAUUGUCGGCGGAUGCCUCUAAA [G7C C34A A48G U56G C71U] | < 1e-05
AUAAAAGCGCCAGACCUACAGAAAUGUAGUUGUCGAGGAGGAGGUUCAUCGAAUUUGCGGCGGAUGCUCCCAAA [A15C A33U U47C U57G C68U U69C] | < 1e-05
AUAAAAGCGCCUGAACUACAGAAAUGUAGUUGACGAGGAGGAGAUUUAUCGUAUUUUCGGCGGAUGCCUCCAAA [A12U G44A A52U] | 4.81e-05 ± 2e-05
AUAAAAGUGUCACAACUACAGAAAUGUAGUUGACGAGGAGGAGGUUUAUGUCAUUUUCGGCGGAUGCCUCAAAA [C8U C10U G13C C50G G51U A52C C71A] | < 1e-05
AUAAAAGCGCCAGAACUACAGAAAUGUAGGUGACGAGGAGGAGGUUCAUCGAAUUUUCGGCGGAUGCUUCCAAA [U30G U47C C68U] | 0.000171 ± 3.3e-05
AUAAAAGCGCCGGGACUACAGAAAUGUAGUUGACGAGGAGGAGGUUUAUCGAAUUUUCCGCGGAUGCCUCCAAA [A12G A14G G59C] | 0.000119 ± 3.7e-05
AUAAAAGCGUCAGAACUACAGAAAUGUAGUUGACGAGGGGGUGGUUUAACGACUUUUCGGCGGAUGCCGCCAAA [C10U A39G A42U U49A A53C U69G] | < 1e-05
AUAAAAGCGCCAUAACUACAGAAAUGUAGUUGACGAGCAGGAGGUUUAUCGAAUUUUUGGUGGAUGCCUCCAAA [G13U G38C C58U C61U] | < 1e-05
AUAAAAGAGCUAGAACUACAGAAAUGUAGUUGAUGAGGUGGAGGUUUAUCGAAUUUUAGGCGGAUGUCUCCAAA [C8A C11U C34U A39U C58A C67U] | < 1e-05
AUAAAAGCGCCAGAACUACAGAAAUGUAGCUGACGAGGAGGAGGUUUAUCGAAUCUUCGGCGGAUGCCUUCAAA [U30C U55C C70U] | 8.64e-05 ± 1.7e-05
AUAAAAGCGCCAGAACUACAGAAAUGUAGUUGACGAGGGGGAGGUUUAUCGAAUUUACGGCGGAUGCUUCCAAA [A39G U57A C68U] | 0.000176 ± 4e-05
AUAAACGCGCCAGAACUACAGAAAUGUAGUUGACGAGGAGGAGGUUUAUCGAAUUUUCAGCGGAUACCUCCAAA [A6C G59A G66A] | < 1e-05
AUAAAAGCGCCAGAACUACAGAAAUGUACUUCACGAGGGGGAGGUUUAUCGAAUUUUCGGCGGAUGCCUCCAAA [G29C G32C A39G] | 7.25e-05 ± 1.8e-05
AUAAAAGCGCCAGAACUACAGAAAUGUAGUUGACGAGGAGUAGGUUUAUCGAAUUUCCGGCGGCUGCCUCCAAA [G41U U57C A64C] | < 1e-05
AUAAAAGCGCCAGGACUACAGAAAUGUAGUUGACGAGGAGGAGGUUAAUCGAAUUUUCUGCGGAUGCCUUCAAA [A14G U47A G59U C70U] | 9.51e-05 ± 1.8e-05
AUAAAAGCGCAAGAACUACAGAAAUGUAGUUGGCGAGGAGGAGGUUUAUUGAAUUUUUUGCGAAUGCCUCCAAA [C11A A33G C50U C58U G59U G63A] | < 1e-05
AUAAAAGCGCUGGAACUACAGAAAUGUAGUUGACGAGGAGGAGGGUUAUCGAAUUUUCGGCGGAUGACUCCAAA [C11U A12G U45G C67A] | 5.25e-05 ± 1.6e-05
AUAAAAGCGCCAGAACUACAGAAAUGUAGUUGACGAGGAGGAGCUUUAUUGAAUUAUCGGCGGAUGCCUCCAAA [G44C C50U U56A] | < 1e-05
AUAAAAGCGCCAGAACUACAGAAAUGUACUUGACGAGGAGGAGGUUUAAAGAAUUUUCGGCGGAUGCCUCCAAA [G29C U49A C50A] | < 1e-05

Variant | self-cleavage kobs at 10000 uM GlcN6P [s⁻¹]
AUAAAAGCGCCAGAACUACAGAAAUGUAGUUCACGAGGAGGAGGUUUAUCGAGUUUUCGGCGGAUGGCUCCAAA [G32C A53G C67G] | 3.72e-05 ± 1.3e-05
AUAAAAGCGUCAGAACUACAGAAAUGUAGUUGUCGACGAGGAGGUUUAUCGAUUUUACGGCGGGUGCCUCCAAA [C10U A33U G37C A53U U57A A64G] | < 1e-05
AUAAAAGCGCCUGAACUACAGAAAUGUAGUUGACGAGGAUGAGGUUUAUCGAAAUUUCGGCGGAUGCCUCCAAA [A12U G40U U54A] | 0.000861 ± 0.00024
AUAAAAGCGCCAGUACUACAGAAAUGUAGUUGACGAGGAGGAGGUUUAUCGAUUUGUUGGCGGAUGCCUCCAAA [A14U A53U U56G C58U] | 3.75e-05 ± 8.7e-06
AUAAAAGCGCCCCAACUACAGAAAUGUAGUUAACGAGGUGGAGGUUUAUCGAAUUUUCGGCGGAUGCCUCCAAA [A12C G13C G32A A39U] | 5.7e-05 ± 1e-05
AUAAAAGCGACAGAAUUACAGAAAUGUAGUUGACGAGGAGGAGGUUUAUCGCAUUUUCGGCGGAUGCCUCCAAA [C10A C16U A52C] | < 1e-05
AUAAAAACGCCAGAACUACAGAAAUGUAAUUGACGAGAAGGAGUUUUGUCGAAUUUUCGGCGGAUUCCUCCAAA [G7A G29A G38A G44U A48G G66U] | < 1e-05
AUAAAAGCGCAAGAACUACAGAAAUGUAGUUGACGAGGAGGAGGUUUAUCGAAUUUUCGGCGGAUACCUCCAAA [C11A G66A] | 6.59e-05 ± 1.3e-05
AUAAAAGCGCCAGAACUACAGAAAUGUAGUUGACGAGGAGGAGGUAUAUCGAAUUUUCGGCCGAUGCCUCUAAA [U46A G62C C71U] | < 1e-05
AUAAAAGCGCCAGAACUACAGAAAUGUAGUUGACGAGGAGGACGUUUAUCGAAUUUUCGGCGGAUGCUUGUAAA [G43C C68U C70G C71U] | < 1e-05
AUAAAAGCGCCAGAGCUACAGAAAUGUAGUUGACGAGGAGGAGGUUUAUCGAAUUUUCGGCGUGUGCCUCCAAA [A15G G63U A64G] | < 1e-05
AUAAAAGCGCCAGAACUACAGAAAUGUAGUUGACGAGGAGGAGGUGUAUCGAAUUUUCGGCAGAUGCCUCAAAA [U46G G62A C71A] | < 1e-05
AUAAAAGCGCCAGAACUACAUAAAUGUACUUGACGAGGAGGAGGUUUAUCGAAUUUUCGGCGGAUGCCUCCAAA [G21U G29C] | 0.00256 ± 0.0005
AUAAAAGAGCCAGAGCUACAGAAAUGUAGUUGACGAGGCGGAGGUUUAUCGAAUUUUCGGCGGAUGCCUGCAAA [C8A A15G A39C C70G] | < 1e-05
AUAAAAGCGCCAGAACUACAGAAAUGUAGUUCACGAGGAGGAGGUUUAUCGAAUUUUCGGCGGAUGCGUCGAAA [G32C C68G C71G] | 0.000123 ± 2.3e-05
AUAAAAGCGCCAGAACUACAGAAAUGUAGUUGACGAGGAGGAGGUUUAUGGAUUUUUCGGCGGAUGCCUCGAAA [C50G A53U C71G] | 0.000148 ± 4e-05
AUAAAAGCGCCAGAACUACAGAAAUGUAGUUGACGAGGAGGAGGUUUAUCGAAUUUUCGCCGGGGGCCUCCAAA [G60C A64G U65G] | < 1e-05
AUAAAAGCGCCCGAUCUACAGAAAUGUAGUCGACGAGGAGGAGGUUUAUCGAAUUUUCGGCGGAUGCCUCCAAA [A12C A15U U31C] | 6.96e-05 ± 1.7e-05
